Assay results from article PMC8670721.

What was measured:
[1] = system: LIN28A (LIN28-TAT recombinant protein, Peprotech); experiment: EMSA
[2] = system: LIN28A (LIN28-TAT recombinant protein, Peprotech); experiment: filter binding

Q: Which Kd [1] does the source give for biotin-labeled pre-let-7a here?
A: Its Kd is 25 nM.

Q: And the Kd [2]?
A: Its Kd is 10 nM.
